Test [1] addresses T1, human IFNAR1 extracellular and transmembrane domains fused with GFP, expressed on HEK293T cells … (human, UniProt P17181 28-457).
T1 construct: domain: extracellular domains and transmembrane domains; the intracellular domain is replaced by GFP; also called R1-WT; HEK293T cells stably expressing IFNAR1; not shown: C-terminal GFP (with linker) from the pEGFP vector
T1 sequence (looked up): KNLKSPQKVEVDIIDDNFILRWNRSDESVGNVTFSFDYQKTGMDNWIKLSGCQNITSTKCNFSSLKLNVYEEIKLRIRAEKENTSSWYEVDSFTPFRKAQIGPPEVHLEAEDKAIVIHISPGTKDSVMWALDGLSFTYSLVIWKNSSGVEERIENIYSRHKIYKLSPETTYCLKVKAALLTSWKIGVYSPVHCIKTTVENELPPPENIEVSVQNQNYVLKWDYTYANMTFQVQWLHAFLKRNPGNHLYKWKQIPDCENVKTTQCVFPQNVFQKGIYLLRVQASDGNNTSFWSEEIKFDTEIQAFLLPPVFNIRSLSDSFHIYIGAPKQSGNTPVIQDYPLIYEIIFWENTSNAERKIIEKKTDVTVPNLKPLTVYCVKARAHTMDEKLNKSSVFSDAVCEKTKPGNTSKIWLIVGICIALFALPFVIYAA
Briefly: flow cytometry screening on HEK293T cells expressing human IFNAR1 extracellular domain-GFP. The text has this: Hybridoma secreting IFNAR1 antibody can be screened by analyzing GFP and PE signals of cells by flow cytometry. Monoclonal IgG antibodies of each well were screened by a reporter cell line stably expressing the extracellular domain of IFNAR1. Once extensive hybridoma growth occurs, hybridoma cells are usually screened after 10-14 days. Hybridoma cells secreting IFNAR1 antibody are subcloned by limited dilution method and were screened again. If still positive for human IFNAR1, then the monoclonal antibody is subcloned at least twice by limited dilution. Then the stable subclones are cultured in vitro, and a small amount of antibodies are produced in tissue culture medium for characterization.
The day before screening, 100 μL supernatant was aspirated from 96-well cell culture plate into a 96-well U bottom plate. 100 μL fresh 1×HAT RPMI medium was added to the original well for continued culture. HEK293T cells stably expressing IFNAR1 were harvested and were subsequently added to a 96-well U-bottom plate at a density of 10,000 cells/200 μL/well. After centrifugation at 2200 rpm for 3 min, the supernatant was discarded and the cell pellet was collected and re-suspended with 100 μL hybridoma supernatant at 4° C. for 30 min. […] Finally, the re-suspended cells were analyzed using a flow cytometer Guava (Millipore) for cellular GFP and PE signal. […]
On the technique in general: A flow cytometer gives signals particle by particle.

Test [2] deals with T2, human IFNAR1 truncation lacking extracellular SD1, fused with GFP, expressed on HEK293T cells (human, UniProt P17181 28-457).
T2 construct: domain: extracellular and transmembrane domains lacking SD1 (32-126); Made from pEGFP-humanIFNAR1EC by overlap PCR; transiently expressed on HEK293T cells; also called R1-Δ1; RI-Δ1; not shown: C-terminal GFP (with linker) from the pEGFP vector
T2 sequence (looked up): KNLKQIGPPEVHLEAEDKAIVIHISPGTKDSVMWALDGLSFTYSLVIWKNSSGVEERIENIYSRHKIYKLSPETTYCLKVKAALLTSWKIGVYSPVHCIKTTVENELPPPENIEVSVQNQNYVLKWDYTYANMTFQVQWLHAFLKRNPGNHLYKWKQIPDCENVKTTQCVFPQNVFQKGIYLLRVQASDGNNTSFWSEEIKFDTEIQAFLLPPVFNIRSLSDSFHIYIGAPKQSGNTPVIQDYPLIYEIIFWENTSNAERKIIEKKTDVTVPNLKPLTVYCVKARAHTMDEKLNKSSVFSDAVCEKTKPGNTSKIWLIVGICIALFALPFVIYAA
Description: flow cytometry on transfected HEK293T cells, PE anti-mouse IgG.

B1: mouse anti-human IFNAR1 monoclonal antibody 10C9 (antibody, V domains shown)
VH: QIQLVQSGPELKKPGETVKISCKASGYTFTNYGVNWMKQAPGKGLKWMGWINTYTGEPTYADDFKGRFAFSLETSASTAYLQINNLKNEDTATYFCAREGVYYYGDWAWLAYWGQGTLVTVSA
VL: DIVMTQSQKFISTSVGDRVSVTCKASQNVGTNVAWYQQKPGQSPKTLIYSTSYRYNGVPDRFTGSGSGTDFTLTISNVQSEDLAEYFCQQYNSYYTFGGGTKLEIK
notes: Mouse monoclonal IgG from a hybridoma, detected with anti-mouse IgG; also called antibody secreted by hybridoma cell line 10C9 (CGMCC No. 12543)
In the case of B1, the binding result is recorded as “binds” in test [1] and “no binding (tested: 5 µg/ml (methods of Example 2))” in test [2].

B2: mouse anti-human IFNAR1 monoclonal antibody 10C2 (antibody, V domains shown)
VH: QIQLVQSGPELKKPGETVKISCKASGYTFTNYGMNWVKQAPGKGLKWMGWINTYTGEPTYSDDFKGRFAFSLETSASTANLQINNLKDEDAATYFCAREGAIYYGDYVYFGVWGAGTTVTVSS
VL: DIVMTQSQKFMSTSVGDRVSITCKASQNVGTAVAWYQEKPGQSPKLLIYSASNRYTGVPDRFTGSGSGTAFTLTISNMQSEDLADYFCQQYYNYPLTFGAGTKLEVKR
notes: Mouse monoclonal IgG from a hybridoma, detected with anti-mouse IgG; also called antibody secreted by hybridoma cell line 10C2 (CGMCC No. 12542)
Turning to B2, the results for the binding result in test [1] and in test [2] were “binds” and “no binding (tested: 5 µg/ml (methods of Example 2))”, respectively.

The record behind these values is US20190389956A1 (INSTITUTE OF BIOPHYSICS CHINESE ACADEMY OF SCIENCES, published 2019).
